{"source": "the supplement of paper PMC9112550", "about": "“Optimization of the antimicrobial peptide Bac7 by deep mutational scanning” (BMC Biology, 2022);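 note: peptides expressed intracellularly from a pBAD plasmid library in pooled LB shake-flask culture, induced with 0.3% L-arabinose, DNA abundance read by NGS, three biological replicates, DESeq2 with apeglm shrinkage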"}
{"tested_on": "Escherichia coli TOP10", "assay": "shrunken log2 fold change of peptide-encoding DNA abundance (4.5 h post-induction vs induction); higher = less antimicrobial activity (less host growth inhibition)", "conditions": "time post-induction: 4.5 h; library: site-saturation at positions 5, 18, 19, 20"}
{"sequence": "RRIRNRPPRLPRPRPRPFTTPRP", "shrunken log2 fold change": -0.0245}
{"sequence": "RRIRQRPPRLPRPRPRPNRDPRP", "shrunken log2 fold change": -0.178}
{"sequence": "RRIRGRPPRLPRPRPRPWFIPRP", "shrunken log2 fold change": -0.361}
{"sequence": "RRIRQRPPRLPRPRPRPFLPPRP", "shrunken log2 fold change": -0.0691}
{"sequence": "RRIRRRPPRLPRPRPRPFTTPRP", "shrunken log2 fold change": -0.0176}
{"sequence": "RRIRYRPPRLPRPRPRPGLMPRP", "shrunken log2 fold change": -0.103}
{"sequence": "RRIRYRPPRLPRPRPRPLSQPRP", "shrunken log2 fold change": 0.0967}
{"sequence": "RRIRKRPPRLPRPRPRPATGPRP", "shrunken log2 fold change": 0.145}
{"sequence": "RRIRWRPPRLPRPRPRPVWPPRP", "shrunken log2 fold change": 0.909}
{"sequence": "RRIRYRPPRLPRPRPRPGNVPRP", "shrunken log2 fold change": 0.0571}
{"sequence": "RRIRPRPPRLPRPRPRPPIHPRP", "shrunken log2 fold change": -0.039}
{"sequence": "RRIRLRPPRLPRPRPRPWGIPRP", "shrunken log2 fold change": -0.198}
{"sequence": "RRIRHRPPRLPRPRPRPEGNPRP", "shrunken log2 fold change": -0.0642}
{"sequence": "RRIRARPPRLPRPRPRPVNIPRP", "shrunken log2 fold change": -0.123}
{"sequence": "RRIRKRPPRLPRPRPRPDGTPRP", "shrunken log2 fold change": 0.293}
{"sequence": "RRIRMRPPRLPRPRPRPTHDPRP", "shrunken log2 fold change": 0.81}
{"sequence": "RRIRDRPPRLPRPRPRPKGWPRP", "shrunken log2 fold change": 0.589}
{"sequence": "RRIRFRPPRLPRPRPRPNEQPRP", "shrunken log2 fold change": 0.027}
{"sequence": "RRIRVRPPRLPRPRPRPVQMPRP", "shrunken log2 fold change": -0.0712}
{"sequence": "RRIRTRPPRLPRPRPRPVPFPRP", "shrunken log2 fold change": 0.0392}
{"sequence": "RRIRVRPPRLPRPRPRPPIRPRP", "shrunken log2 fold change": -0.0403}
{"sequence": "RRIRLRPPRLPRPRPRPHTVPRP", "shrunken log2 fold change": -0.267}
{"sequence": "RRIRERPPRLPRPRPRPDNWPRP", "shrunken log2 fold change": -0.103}
{"sequence": "RRIRIRPPRLPRPRPRPSLCPRP", "shrunken log2 fold change": -0.242}
{"sequence": "RRIRARPPRLPRPRPRPVLAPRP", "shrunken log2 fold change": 1.18}
{"sequence": "RRIRCRPPRLPRPRPRPLEPPRP", "shrunken log2 fold change": 0.0773}
{"sequence": "RRIRNRPPRLPRPRPRPRDRPRP", "shrunken log2 fold change": -0.0372}
{"sequence": "RRIRSRPPRLPRPRPRPVPVPRP", "shrunken log2 fold change": 0.362}
{"sequence": "RRIRYRPPRLPRPRPRPDDEPRP", "shrunken log2 fold change": 0.00902}
{"sequence": "RRIRNRPPRLPRPRPRPARPPRP", "shrunken log2 fold change": 2.86}
{"sequence": "RRIRKRPPRLPRPRPRPQKTPRP", "shrunken log2 fold change": 0.167}
{"sequence": "RRIRRRPPRLPRPRPRPKLPPRP", "shrunken log2 fold change": 0.369}
{"sequence": "RRIRSRPPRLPRPRPRPQYFPRP", "shrunken log2 fold change": -0.18}
{"sequence": "RRIRKRPPRLPRPRPRPCSVPRP", "shrunken log2 fold change": 0.0108}
{"sequence": "RRIRERPPRLPRPRPRPANRPRP", "shrunken log2 fold change": 0.111}
{"sequence": "RRIRWRPPRLPRPRPRPGGGPRP", "shrunken log2 fold change": 0.953}
{"sequence": "RRIRMRPPRLPRPRPRPKWLPRP", "shrunken log2 fold change": 0.612}
{"sequence": "RRIRCRPPRLPRPRPRPECTPRP", "shrunken log2 fold change": -0.0491}
{"sequence": "RRIRIRPPRLPRPRPRPVAEPRP", "shrunken log2 fold change": 0.243}
{"sequence": "RRIRARPPRLPRPRPRPRIRPRP", "shrunken log2 fold change": 0.322}
{"sequence": "RRIRSRPPRLPRPRPRPPNGPRP", "shrunken log2 fold change": 0.36}
{"sequence": "RRIRYRPPRLPRPRPRPYWLPRP", "shrunken log2 fold change": -1.14}
{"sequence": "RRIRIRPPRLPRPRPRPLVIPRP", "shrunken log2 fold change": -1.46}
{"sequence": "RRIRHRPPRLPRPRPRPFIIPRP", "shrunken log2 fold change": -0.00662}
{"sequence": "RRIRYRPPRLPRPRPRPIDAPRP", "shrunken log2 fold change": -0.284}
{"sequence": "RRIRDRPPRLPRPRPRPFKFPRP", "shrunken log2 fold change": -0.122}
{"sequence": "RRIRPRPPRLPRPRPRPWKGPRP", "shrunken log2 fold change": 0.0625}
{"sequence": "RRIRERPPRLPRPRPRPPYDPRP", "shrunken log2 fold change": -1.12}
{"sequence": "RRIRHRPPRLPRPRPRPVWLPRP", "shrunken log2 fold change": -0.0368}
{"sequence": "RRIRCRPPRLPRPRPRPQEFPRP", "shrunken log2 fold change": -0.366}
{"sequence": "RRIRFRPPRLPRPRPRPPNGPRP", "shrunken log2 fold change": -0.0591}
{"sequence": "RRIRGRPPRLPRPRPRPWCLPRP", "shrunken log2 fold change": -0.262}
{"sequence": "RRIRVRPPRLPRPRPRPCYFPRP", "shrunken log2 fold change": -0.594}
{"sequence": "RRIRDRPPRLPRPRPRPFPSPRP", "shrunken log2 fold change": -0.0268}
{"sequence": "RRIRLRPPRLPRPRPRPIFIPRP", "shrunken log2 fold change": 0.606}
{"sequence": "RRIRKRPPRLPRPRPRPCVYPRP", "shrunken log2 fold change": 0.109}
{"sequence": "RRIRDRPPRLPRPRPRPYYVPRP", "shrunken log2 fold change": 0.0365}
{"sequence": "RRIRVRPPRLPRPRPRPYPSPRP", "shrunken log2 fold change": -0.422}
{"sequence": "RRIRPRPPRLPRPRPRPDSKPRP", "shrunken log2 fold change": -0.238}
{"sequence": "RRIRMRPPRLPRPRPRPLYLPRP", "shrunken log2 fold change": -0.327}
